T1: His-FLP (FOUR LIPS, MYB124) (UniProt Q94FL6 1-436)
T1 sequence: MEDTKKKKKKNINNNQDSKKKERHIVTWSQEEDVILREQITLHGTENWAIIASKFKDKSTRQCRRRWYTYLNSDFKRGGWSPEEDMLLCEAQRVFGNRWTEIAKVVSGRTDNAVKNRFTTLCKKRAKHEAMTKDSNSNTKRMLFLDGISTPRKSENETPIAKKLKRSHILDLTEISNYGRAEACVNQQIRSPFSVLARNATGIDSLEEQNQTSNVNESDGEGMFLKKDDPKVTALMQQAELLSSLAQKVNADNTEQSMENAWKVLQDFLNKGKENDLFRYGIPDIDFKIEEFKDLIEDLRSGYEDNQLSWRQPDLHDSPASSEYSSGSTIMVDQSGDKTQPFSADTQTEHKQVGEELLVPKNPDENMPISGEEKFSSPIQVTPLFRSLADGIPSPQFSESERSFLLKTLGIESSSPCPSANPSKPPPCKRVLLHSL

T2: His-MYB88 (UniProt F4IRB4 1-484)
T2 sequence: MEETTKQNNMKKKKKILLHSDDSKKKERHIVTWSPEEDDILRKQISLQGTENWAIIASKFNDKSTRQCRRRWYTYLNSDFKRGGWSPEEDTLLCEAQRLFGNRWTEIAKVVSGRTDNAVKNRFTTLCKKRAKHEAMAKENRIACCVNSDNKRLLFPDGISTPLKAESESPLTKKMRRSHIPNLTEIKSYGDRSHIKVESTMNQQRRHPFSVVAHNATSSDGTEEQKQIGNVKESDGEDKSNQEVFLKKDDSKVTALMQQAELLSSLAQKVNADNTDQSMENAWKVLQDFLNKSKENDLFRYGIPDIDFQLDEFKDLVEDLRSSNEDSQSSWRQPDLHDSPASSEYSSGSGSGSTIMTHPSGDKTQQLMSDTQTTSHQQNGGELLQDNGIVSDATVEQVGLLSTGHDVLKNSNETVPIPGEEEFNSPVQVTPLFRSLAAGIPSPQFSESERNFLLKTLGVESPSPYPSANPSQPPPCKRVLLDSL

B1: Probe-1007 (dsDNA)
DNA 1: CATAAGGTATTCTTTTACACTAATACTTTCCCGACAACAACAACGAAAAACTCCAACCT
DNA 2: AGGTTGGAGTTTTTCGTTGTTGTTGTCGGGAAAGTATTAGTGTAAAAGAATACCTTATG
B2: Probe-1386 (neighbour element -1392 replaced with A) (dsDNA)
DNA 1: AATGTGTAATTGTCAAGAGGGATAAAAAAACGCGGATGAATCGAAGAAGCAATTGCTTT
DNA 2: AAAGCAATTGCTTCTTCGATTCATCCGCGTTTTTTTATCCCTCTTGACAATTACACATT
B3: Probe-902 (dsDNA)
DNA 1: TATTTAACTATTGCTTTTTTGATTATTAGCCGGGGTACCAAGATATTAGTTTTTAATTT
DNA 2: AAATTAAAAACTAATATCTTGGTACCCCGGCTAATAATCAAAAAAGCAATAGTTAAATA
B4: Probe-1086 (neighbour element -1080 replaced with A) (dsDNA)
DNA 1: CTTCTAGGAAAAAACAATTCTTGATACGGTAAAAAAAAGATCTTGATAACATTGTGACT
DNA 2: AGTCACAATGTTATCAAGATCTTTTTTTTACCGTATCAAGAATTGTTTTTTCCTAGAAG
B5: Probe-473 (dsDNA)
DNA 1: TTATGTGTATGTTGTTATCTACAATATGTCCGTTTCAATCAGTCGAACAAAAAATACTA
DNA 2: TAGTATTTTTTGTTCGACTGATTGAAACGGACATATTGTAGATAACAACATACACATAA
B6: Probe-1080 (neighbour element -1086 replaced with A) (dsDNA)
DNA 1: CTTCTAGGAAAAAACAATTCTTGAAAAAATCGCGGAAAGATCTTGATAACATTGTGACT
DNA 2: AGTCACAATGTTATCAAGATCTTTCCGCGATTTTTTCAAGAATTGTTTTTTCCTAGAAG
B7: Probe-1392 (neighbour element -1386 replaced with A) (dsDNA)
DNA 1: AATGTGTAATTGTCAAGAGGGATAAACCGAAAAAAATGAATCGAAGAAGCAATTGCTTT
DNA 2: AAAGCAATTGCTTCTTCGATTCATTTTTTTCGGTTTATCCCTCTTGACAATTACACATT
B8: Probe-863 (dsDNA)
DNA 1: AAGATATTAGTTTTTAATTTAGTAATATACCCATATGTTTAATATTGATATCGATATTG
DNA 2: CAATATCGATATCAATATTAAACATATGGGTATATTACTAAATTAAAAACTAATATCTT

The binders below were run against T1, His-FLP (FOUR LIPS, MYB124) (assay: EMSA; 1x binding buffer (LightShift kit), 2.5% glycerol, 50 mM KCl, 5 mM MgCl2, 0.05% NP-40, 10 mM EDTA, room temperature, 20 min; pH not stated).

**Q.** Does B1 bind?
**A.** no binding

**Q.** Does B2 bind?
**A.** binds

**Q.** Does B3 bind?
**A.** binds

**Q.** Does B4 bind?
**A.** binds

**Q.** Does B5 bind?
**A.** no binding

**Q.** Does B6 bind?
**A.** binds

**Q.** Does B7 bind?
**A.** binds

**Q.** Does B8 bind?
**A.** no binding

The binders below were run against T2, His-MYB88 in the same assay as above.

**Q.** Does B2 bind?
**A.** binds

**Q.** Does B3 bind?
**A.** binds

**Q.** Does B7 bind?
**A.** binds

Reference: publication PMC4673497
